# Data published in patent US20200121803A1 (published 2020).
# Positions count from the first letter of the chain named.
# T1: human CD98, endogenously expressed on Molt-4 human acute lymphoblastic leukemia cells (human)
# T1 chain: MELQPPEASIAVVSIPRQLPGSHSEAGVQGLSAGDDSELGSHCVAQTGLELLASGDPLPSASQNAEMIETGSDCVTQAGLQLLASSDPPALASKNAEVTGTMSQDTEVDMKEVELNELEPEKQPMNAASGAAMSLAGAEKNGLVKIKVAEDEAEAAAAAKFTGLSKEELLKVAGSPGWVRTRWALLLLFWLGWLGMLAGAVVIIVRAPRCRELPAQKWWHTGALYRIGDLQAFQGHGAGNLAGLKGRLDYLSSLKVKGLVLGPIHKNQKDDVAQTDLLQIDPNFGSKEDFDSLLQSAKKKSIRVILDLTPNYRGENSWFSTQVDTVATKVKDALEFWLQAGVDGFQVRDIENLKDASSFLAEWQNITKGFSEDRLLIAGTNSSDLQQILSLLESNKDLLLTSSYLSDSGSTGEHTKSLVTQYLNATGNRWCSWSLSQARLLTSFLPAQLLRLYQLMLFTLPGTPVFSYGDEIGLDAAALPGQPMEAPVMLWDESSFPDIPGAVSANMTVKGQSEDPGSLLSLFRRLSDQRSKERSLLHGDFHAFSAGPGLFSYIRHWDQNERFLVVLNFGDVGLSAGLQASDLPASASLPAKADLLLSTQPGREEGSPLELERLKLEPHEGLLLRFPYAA
# T2: Human CD98, endogenous on HCC38, Molt-4 and Jurkat human cancer cells (human)
# T2 chain: T1 chain
# B1: CD98 (CL-huAb110)-ZZ (antibody, human IgG1, kappa, L234A L235A, V domains shown)
# VH: EVQLVQSGAEVKKPGASVKVSCKASGFTFSDYTMAWVRQAPGQGLEWVATIIYDARGTYYRDAVKGRFTITRDNSTSTLYLELSSLRSEDTAVYYCARQSDDTYYYWGYFDYWGQGTMVTVSS
# VL: DIVMTQTPLSLPVTPGEPASINCKSSQSLLFSGNQKNYLAWYLQKPGQSPQLLIYWASTRQSGVPDRFSGSGSGTDFTLKISRVEAEDVGIYYCQQYYSSPYTFGQGTKLEIKR
# modifications: synthon ZZ on reduced cysteine (see heavy chain); Bcl-xL inhibitor synthon ZZ on cysteines freed by TCEP reduction (Method G); DAR 1.0 by MS for the whole ADC
# B2: CD98 (CL-huAb102)-XW (antibody, human IgG1, kappa, L234A L235A, V domains shown)
# VH: EVQLVESGGGLVQPGGSLRLSCATSGFTFIDYYMSWVRQAPGKGLEWLGFIRNKANRYTTEYSASVKGRFTISRDNSKSILYLQMNSLKTEDTAVYYCTRDRPAWFVYWGQGTLVTVSS
# VL: B1 VL with N22S, F31Y, G33S, Q61E, I91V, S100Y, Q106G, L110V
# modifications: synthon XW on reduced cysteine (see heavy chain); Bcl-xL inhibitor synthon XW on cysteines freed by TCEP reduction (Method G); DAR 2.8 by MS for the whole ADC
# B3: CD98 (CL-huAb110)-XW (antibody, human IgG1, kappa, L234A L235A, V domains shown)
# VH: B1 VH
# VL: B1 VL
# modifications: synthon XW on reduced cysteine (see heavy chain); Bcl-xL inhibitor synthon XW on cysteines freed by TCEP reduction (Method G); DAR 3.2 by MS for the whole ADC
# B4: CD98 (CL-huAb104)-SE (antibody, human IgG1, kappa, L234A L235A, V domains shown)
# VH: B2 VH with N56Y, R57G
# VL: B1 VL with N22S, F31Y, G33S, Q61E, I91V, S100Y, Q106G, L110V
# modifications: synthon SE on reduced cysteine (see heavy chain); Bcl-xL inhibitor synthon SE on cysteines freed by TCEP reduction (Method A); DAR 2.4 by MS for the whole ADC
# B5: CD98 (CL-huAb110)-SE (antibody, human IgG1, kappa, L234A L235A, V domains shown)
# VH: B1 VH
# VL: B1 VL
# modifications: synthon SE on reduced cysteine (see heavy chain); Bcl-xL inhibitor synthon SE on cysteines freed by TCEP reduction (Method A); DAR 1.9 by MS for the whole ADC
# B6: CD98 (CL-huAb102)-SE (antibody, human IgG1, kappa, L234A L235A, V domains shown)
# VH: B2 VH
# VL: B1 VL with N22S, F31Y, G33S, Q61E, I91V, S100Y, Q106G, L110V
# modifications: synthon SE on reduced cysteine (see heavy chain); Bcl-xL inhibitor synthon SE on cysteines freed by TCEP reduction (Method A); DAR 2.2 by MS for the whole ADC
# B7: CD98 (CL-huAb108)-XW (antibody, human IgG1, kappa, L234A L235A, V domains shown)
# VH: B1 VH with D54S, A55G
# VL: B1 VL with S99D, S100V
# modifications: synthon XW on reduced cysteine (see heavy chain); Bcl-xL inhibitor synthon XW on cysteines freed by TCEP reduction (Method G); DAR 3.5 by MS for the whole ADC
# B8: CD98 (CL-huAb104)-XW (antibody, human IgG1, kappa, L234A L235A, V domains shown)
# VH: B2 VH with N56Y, R57G
# VL: B1 VL with N22S, F31Y, G33S, Q61E, I91V, S100Y, Q106G, L110V
# modifications: synthon XW on reduced cysteine (see heavy chain); Bcl-xL inhibitor synthon XW on cysteines freed by TCEP reduction (Method G); DAR 3.1 by MS for the whole ADC
# B9: Ab3-CZ (Ab3 conjugated to Bcl-xL inhibitor synthon CZ) (antibody, V domains shown)
# VH: EVKLVESGGGLVQPGNSLRLSCATSGFTFIDYYMSWVRQSPGKALEWLGFIRNKANGYTTEYSASVKGRFTISRDNSQSILYLQMDTLRAEDSATYYCTRDRPAWFVYWGQGTLVTVSA
# VL: DIVMSQSPSSLAVSVGEKVTMSCKSSQSLLYSSNQKNYLAWYQQKPGQSPKLLIYWASTRESGVPDRFTGSGSGTDFTLTFSSVRAEDLAVYYCQQYYSYPYTFGGGTKLEIK
# B10: Ab2-CZ (Ab2 conjugated to Bcl-xL inhibitor synthon CZ) (antibody, V domains shown)
# VH: EVKLVESGGGLVQPGGSLRLSCATSGFNFTDYYMSWVRQPPGKALEWLGFIRNKANGYTTEYSASVKGRFTISRDDSQSILYLQMNTLRAEDSATYYCARASYGNSEGWFAYWGQGTLVTVSA
# VL: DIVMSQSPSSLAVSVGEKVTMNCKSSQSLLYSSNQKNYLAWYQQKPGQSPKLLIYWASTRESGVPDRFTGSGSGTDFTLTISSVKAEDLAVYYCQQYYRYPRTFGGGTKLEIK
# B11: Ab8-CZ (Ab8 conjugated to Bcl-xL inhibitor synthon CZ) (antibody, V domains shown)
# VH: EVQLVESGGGLVQPGRSLKLSCAASGFTFSDYAMAWVRQAPKKGLEWVASIIYDGRGTYYRDSVKGRFTISRDNAKSTLYLQMDSLRSEDTATYYCARQGDGTYYYWGYFDYWGQGVMVTVSS
# VL: DIVMTQSPSSLAVSAGETVTINCKSSQSLLSSGNQKNYLAWYQQKPGQSPKLLIYWASTRQSGVPDRFIGSGSGTDFTLTINSVQAEDLAIYYCQQYYDTPYTFGAGTKLELK
# B12: Ab10-CZ (Ab10 conjugated to Bcl-xL inhibitor synthon CZ) (antibody, V domains shown)
# VH: B11 VH with G44S, S50T, Y60C, Y105H
# VL: B11 VL with N82S, L110V, E111D
# B13: Ab15-CZ (Ab15 conjugated to Bcl-xL inhibitor synthon CZ) (antibody, V domains shown)
# VH: B11 VH with A33T, S50T, G100S
# VL: B11 VL with S31F, N82R, T100S
# B14: Ab11-CZ (Ab11 conjugated to Bcl-xL inhibitor synthon CZ) (antibody, V domains shown)
# VH: B11 VH with S50G
# VL: B11 VL with K24R, N82S
# B15: Ab12-CZ (Ab12 conjugated to Bcl-xL inhibitor synthon CZ) (antibody, V domains shown)
# VH: B11 VH with Y109S
# VL: B11 VL with N82S, Y93H
# B16: Ab7-CZ (Ab7 conjugated to Bcl-xL inhibitor synthon CZ) (antibody, V domains shown)
# VH: QVQLKESGPGLVQPSQTLSLTCTVSGFSLSTYGVIWVRQPPGKGLEWMGVIWANGNTNYNSTLKSRLSISRDTSKSQVYLKMNSLQTEDTATYYCARHYYDGTYYYGYFDYWGQGVMVTVSS
# VL: DIVMTQTPSSQAVSAGEKVTMNCKSSQSLLYSENKKNYLAWYQQKPGQSPKLLIYWASTRESGVPDRFIGSGSGTDFTLTISSVQAEDLAVYYCQQYYYFPYTFGPGTKLELK
# B17: Ab9-CZ (Ab9 conjugated to Bcl-xL inhibitor synthon CZ) (antibody, V domains shown)
# VH: B16 VH with T23A, T31N, G49A, A53T
# VL: B16 VL with N22S, S32T, I69M, T103M, P106A
# B18: Ab13-CZ (Ab13 conjugated to Bcl-xL inhibitor synthon CZ) (antibody, V domains shown)
# VH: B16 VH with T31S, V50I, T62A, Y104H
# VL: B16 VL with I2T, N22S, N37K, Y99N, P106A
# B19: Ab14-CZ (Ab14 conjugated to Bcl-xL inhibitor synthon CZ) (antibody, V domains shown)
# VH: EVKLQQSGDELVRPGASVKISCKASGYTFTSYSMHWVKERPGQGLEWIGAIFPIIGTTEYNQKFKGKATLTADKSSNTANMELSRLTSEDSAVYYCARVYLSYFDYWGQGVMVTVSS
# VL: DIQMTQSPSFLSASVGDRVTINCKASQNINKYLDWYQRKHGEAPKLLIYNTNNLQTGIPSRFSGSGSGTDYTLTISSLQPEDVATYFCLQHSSRYTFGAGTKLELK
# Target: T1, human CD98, endogenously expressed on …
# Test: cell-based or functional assay
Binder,% Cell Viability at 50 nM (Molt-4),"Molt4 IC50 (nM), 50% inhibition of cell proliferation, 72 h, ATPlite"
B1,4.3%,0.252 nM
B2,32%,0.074 nM
B3,19.6%,0.308 nM
B4,17.1%,0.149 nM
B5,5.7%,0.502 nM
B6,19.7%,0.107 nM
B7,20.9%,0.281 nM
B8,31.1%,0.102 nM

# Target: T2, Human CD98, endogenous on HCC38, Molt-4 …
# Test: cell-based or functional assay
Binder,"ADC potency, IC50 (nM), HCC38 growth inhibition","ADC potency, IC50 (nM), Jurkat growth inhibition","ADC potency, IC50 (nM), Molt-4 growth inhibition"
B9,0.561 nM,0.071 nM,0.031 nM
B10,0.791 nM,0.065 nM,0.05 nM
B11,0.963 nM,0.121 nM,0.079 nM
B12,1.16 nM,0.148 nM,0.047 nM
B13,1.06 nM,0.076 nM,0.071 nM
B14,1.14 nM,0.311 nM,0.279 nM
B15,0.685 nM,0.094 nM,0.087 nM
B16,1.15 nM,0.134 nM,0.079 nM
B17,1.09 nM,0.092 nM,0.03 nM
B18,0.787 nM,0.149 nM,0.38 nM
B19,0.798 nM,0.063 nM,0.025 nM
